# Results as given in the supplement of paper PMC9170038.
# Tested on: MS2 coat protein
# Test: apparent KD of MS2 coat protein; designed switch direction (-1 OFF switch, 1 ON switch): 1; higher = weaker reporter binding
# Procedure, shortened: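 Designed RNA switches with common flanks were made on Illumina chips by stalled E. coli RNA polymerase. Titration with SNAP-549-labelled MS2 coat protein doubled from 0.7 or 1.5 nM up to 3 µM. Apparent KD is each design's median over clusters after curve-fitting normalised fluorescence.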
# [1] = input ligand: microRNA oligo, concentration not stated
# [2] = Eterna round: R95, input ligand: FMN 200 uM
# [3] = Eterna round: R95, input ligand: microRNA oligo, concentration not stated
# [4] = Eterna round: R95, input ligand: none
Sequence,apparent KD of MS2 coat protein (input ligand: FMN 200 uM) [nM],apparent KD of MS2 coat protein [1] [nM],apparent KD of MS2 coat protein (input ligand: none) [nM],apparent KD of MS2 coat protein [2] [nM],apparent KD of MS2 coat protein [3] [nM],apparent KD of MS2 coat protein [4] [nM]
"GGUAGGUUACUACCAAACAUGAGGAUCACCCAUGUAAGUGGGAAGGAUAUGGUACCGUUUCGGUACCAGAAGGUCCAUAUAGUA [JL Fiskers NG3ss - 2 mod 11] (Eterna round: R96, puzzle: Same State NG 3)",232,658,1530,,,
"GGAAUAUUUACAGGAUAUCAUUUGUAAAUUCGAUGAGAAGGGUAGAUGUCUUACACGACUUGUUACAUGAGGAUCACCCAUGUU [SameState NG1 #8] (Eterna round: R96, puzzle: Same State NG 1)",,34,,,,
GGAGCCGGCACCGAGGAUAUUCAUAUUAAAACAUGAGGAUCACCCAUGUAGAGCAGAAGCUCUUGGGAGAAGGCGGAUCGGCUCG [Xeonanis - 27] (puzzle: Same State 2),,,,28.4,306,549
"GCUCGAAUCAAAACCAACAUGAGGAUCACCCAUGUAUGUUGGUAGGAUAUCGUUUGUAAAACAAACGAGAAGGGCCAAACGAGC [SameState NG3 #4] (Eterna round: R96, puzzle: Same State NG 3)",53,93.3,118,,,
"UGAAUGGUGAUAGGAUAUACAUGAGGAAUCCUCGUAGAAGGAUCAUGACAUGAGGAUCACCCAUGUAGCGCUCAGAAGAGCGCA [Mat - Same State NG 1 - JL mod - D53] (Eterna round: R96, puzzle: Same State NG 1)",129,42.4,83.9,,,
"UGGCUCAGACUAGGAUAUAUGCGAUCACAUGAGGAUCACCCAUGUCUCGAGCUUCGGCUCGAGGCAUAGAAGGAGUCUGAGCCA [SSNG2/4-D2] (Eterna round: R96, puzzle: Same State NG 2)",14.4,34.6,56.5,,,
UGGCAACAUGAGGAUCACCCAUGUCAAACUAAUCGAGGAUAUGGGAACGAACAAGAGAAACUAGAAGGCGAACUUG [Altered State 1-11 - Jieux - Same State 1] (puzzle: Same State 1),,,,122,137,118
"GUUAGGAAUCUAGCAGACAUGAGGAUCACCCAUGUUAGUGGGAAGGAUAUGGUACAGAAACUGUACCAGAAGGUCUUAUUGUUU [Omei SS(NG) 3 AV13] (Eterna round: R96, puzzle: Same State NG 3)",348,398,690,,,
AAUGUCUCACAUGAGGAUCACCCAUGUCUUUGGAUGAAGCUUUUUGCUCGUCUUCAUUUUGCUCGUCUUACCCAUGU [SBY_1] (puzzle: Sensor for hsa-mir-208a version 2),,,,44.8,21,52.7
AUAAGUUCGAUGCUCGUCUCUCCGUACAAACAUGAGGAUCACCCAUGUGACUGGGCAAUAGCCCAAUCAGUAUGGCC [Beongetiqu] (puzzle: Sensor for hsa-mir-208a),,,,34.8,22.8,34.4
"GGAAUAUGAUGUUACAUGAGGAUCACCCAUGUAGUGAUAACUAAGGAUAUUUGAAAGGAAGGAGAAGAGAAGGUAGGAUCAUAA [AK SSNG3-V2-12] (Eterna round: R96, puzzle: Same State NG 3)",50.9,34.3,55.4,,,
"UGGUACAUGGGAGGAUAUGGGUUGAUGACAUGAGGAUCACCCAUGUUAAAUAUGCCGAGAGGCAACUAGAAGGCCCAUGUACCU [JL SSNG1 3.99] (Eterna round: R96, puzzle: Same State NG 2)",62.7,1320,1080,,,
"AGGCUCAGACGAGGAUAUAUGUGGUCACAUGAGGAUCACCCAUGUCUCGAGCUUCGGCUCGAGGCAUAGAAGGCGUCUGAGCCA [SSNG2/5-A1] (Eterna round: R96, puzzle: Same State NG 2)",662,16.4,184,,,
AAGAAUCUAUCUCAGGAUAUCAUGUCAAAGACAUGAGGAUCACCCAUGUACCAGGAAACUGGUUAUGAGAAGGGAGAUAGAUUCU [Mat - Same State 2 - Mod - D32] (puzzle: Same State 2),,,,99.4,30.6,282
"GUGGUCAGACAUGAGGAUCACCCAUGUGGAAUAAAUAAGGACUAGGAUAUGUAAUAUAGGAUAUAACAGAAGGAGUGGUUGGUG (Eterna round: R96, puzzle: Same State NG 3)",66.8,42.1,60.2,,,
"CUGAGCAAUCGAGGAUAUCACGUCGAUUAGACGUGAGAAGGCGAUCAUAACAUGAGGAUCACCCAUGUAUUACAUGAAGCUCAG [SSNG1/4-A2] (Eterna round: R96, puzzle: Same State NG 1)",15.3,12.9,20.3,,,
"UCAAGAUCGCGAGGAUAUCGCGAGGAUCACCCGUGAGAAGGCGCAGAGCCGAGGAUCACCCGGCUGAUCCUGAGGAGGAGGUAA (Eterna round: R96, puzzle: Same State NG 1)",139,234,420,,,
"AAAGGAUGAUUAUACAUGAGGAUCACCCAUGUAAGUUAUACUAAGGAUAUGUGACUUAAUAGUUUACAGAAGGUAGGUUCAUGA [AK SSNG3-V2-2] (Eterna round: R96, puzzle: Same State NG 3)",43.8,69.3,59.9,,,
GGUCCAGCCUGAGCUGGACAAAAGCAUGUACAUGAGGAUCACCCAUGUUCAUGUACAAGCUUUUUGCUCGUCUUAUC [salish99_208a_r3_056] (puzzle: Sensor for hsa-mir-208a),,,,431,14.6,664
GGAGAACAUGAGGAUCACCCAUGUAAGAGAGUUGUAGGAUAUGUGAGGAGCAGAGGAUGAACAGAAGGACAUGGAG [JR_SS!_Sub070] (puzzle: Same State 1),,,,42,49.3,56.4
"AUAUGAGCUAUGGAGGAUAUCCAUAACAAGACAUGAGGAUCACCCAUGUAAUCAAAACAAUAAUGGGAGAAGGCCAUAGCUCAAU [SS 2 M47] (Eterna round: R96, puzzle: Same State 2)",,46.9,,,,
GGAGCCGGCACUGAGGAUAUUCAUAAUAAAACAUGAGGAUCACCCAUGUAGGCCAGAAGGCCUUGGGAGAAGGCAGGUCGGCUCA [Mat - Same State 2 - Mod of UCT - D66] (puzzle: Same State 2),,,,18.3,153,217
"GCUCCAUUACGAGGAUAUGGGAAAGGAAGUGUACCAGAAGGCGUGAAAAGGUACAUGAGGAUCACCCAUGUACCCGGGAGCAAA [PowerStrip SSNG 1.11] (Eterna round: R96, puzzle: Same State NG 1)",23.1,19.6,20.3,,,
